This is an account of results in PMC9772228, “Structure of a RecT/Redβ family recombinase in complex with a duplex intermediate of DNA annealing”.

For one data set, the target named is T1, LiRecT K191A/F194A (Listeria innocua CLIP 11262, UniProt Q92FL9 1-271, K191A;F194A).
T1 sequence: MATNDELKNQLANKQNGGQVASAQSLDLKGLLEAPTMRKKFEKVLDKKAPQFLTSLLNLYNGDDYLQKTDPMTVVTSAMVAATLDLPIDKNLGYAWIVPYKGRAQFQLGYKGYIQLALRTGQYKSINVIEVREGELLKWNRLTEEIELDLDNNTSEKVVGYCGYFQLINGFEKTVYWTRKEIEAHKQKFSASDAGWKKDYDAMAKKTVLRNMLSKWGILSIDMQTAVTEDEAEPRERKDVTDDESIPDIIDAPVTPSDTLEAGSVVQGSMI
Kind of data set: EMSA; EMSA: PBS pH 7.4 (or KH2PO4/10 mM MgCl2 pH 6.0), 3.6 or 5 uM protein, 25 uM nt DNA, 37 C 15 min per strand, 0.8% agarose 1x TBE; cryo-EM: 20 mM KH2PO4 (Results: 10 mM), 10 mM MgCl2 pH 6.0, 37 C; native MS: 100 mM ammonium acetate pH 7, 37 C. To be noted: protein: recombinant, tags: N-terminal 6His vector tag (20 aa) retained, chain copies: 10, single strand.

A further data set concerns the target T2, LiRecT V98A (Listeria innocua CLIP 11262, UniProt Q92FL9 1-271, V98A).
T2 sequence: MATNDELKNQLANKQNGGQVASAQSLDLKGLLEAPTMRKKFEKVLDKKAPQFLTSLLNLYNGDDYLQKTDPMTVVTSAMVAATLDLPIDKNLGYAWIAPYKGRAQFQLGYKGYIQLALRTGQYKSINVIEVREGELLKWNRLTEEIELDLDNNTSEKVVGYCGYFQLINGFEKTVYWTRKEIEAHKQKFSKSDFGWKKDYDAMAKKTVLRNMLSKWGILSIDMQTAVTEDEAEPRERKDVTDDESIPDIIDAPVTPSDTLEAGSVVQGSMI
Described as above. To be noted: protein: recombinant, tags: N-terminal 6His vector tag (20 aa) retained, chain copies: 10, single strand.

B1: Cy3-50mer (ssDNA)
DNA: GCGGATGGCTTAGAGCAGAATCGCCCTGCATAGCTCGATTTTTGCGGATG
Regarding B1, the binding result with LiRecT K191A/F194A (label: 5'-Cy3) and in the data set with LiRecT V98A (label: 5'-Cy3) was “binds” throughout.

B2: Cy5-50mer (ssDNA)
DNA: CCATCCGCAAAAATCGAGCTATGCAGGGCGATTCTGCTCTAAGCCATCCG
Take B2: the binding result in the data set with LiRecT K191A/F194A (label: 5'-Cy5) and with LiRecT V98A (label: 5'-Cy5) was “binds” in each case.
